The results in this text go back to patent publication US20220168396A1, “MULTI-RECEPTOR AGONIST AND MEDICAL USE THEREOF” (published 2022).

Square brackets hold non-standard residues; d marks the D form. Ends that are not written are not given here. Aib = CC(C)(N)C(=O)O

The target of the assay is human glucagon-like peptide-1 receptor (human, UniProt P43220). Description: cell-based or functional assay.

B1: Compound No. 79 (peptide)
peptide: Y[Aib]EGTFTSDYSIYLEKIAAQEFVQWLIAGGPSSGAPPPS-NH2
modifications: N-terminus assumed
SMILES: CC[C@H](C)[C@H](NC(=O)[C@H](CCCCN)NC(=O)[C@H](CCC(=O)O)NC(=O)[C@H](CC(C)C)NC(=O)[C@H](Cc1ccc(O)cc1)NC(=O)[C@@H](NC(=O)[C@H](CO)NC(=O)[C@H](Cc1ccc(O)cc1)NC(=O)[C@H](CC(=O)O)NC(=O)[C@H](CO)NC(=O)[C@@H](NC(=O)[C@H](Cc1ccccc1)NC(=O)[C@@H](NC(=O)CNC(=O)[C@H](CCC(=O)O)NC(=O)C(C)(C)NC(=O)[C@@H](N)Cc1ccc(O)cc1)[C@@H](C)O)[C@@H](C)O)[C@@H](C)CC)C(=O)N[C@@H](C)C(=O)N[C@@H](C)C(=O)N[C@@H](CCC(N)=O)C(=O)N[C@@H](CCC(=O)O)C(=O)N[C@@H](Cc1ccccc1)C(=O)N[C@H](C(=O)N[C@@H](CCC(N)=O)C(=O)N[C@@H](Cc1c[nH]c2ccccc12)C(=O)N[C@@H](CC(C)C)C(=O)N[C@H](C(=O)N[C@@H](C)C(=O)NCC(=O)NCC(=O)N1CCC[C@H]1C(=O)N[C@@H](CO)C(=O)N[C@@H](CO)C(=O)NCC(=O)N[C@@H](C)C(=O)N1CCC[C@H]1C(=O)N1CCC[C@H]1C(=O)N1CCC[C@H]1C(=O)N[C@@H](CO)C(N)=O)[C@@H](C)CC)C(C)C
B1: the “Activity for human GLP-1R (EC50 nM), cAMP HTRF” value (from here on “Activity for human GLP-1R”) was determined as 0.012 nM.

B2: Compound No. 21 (peptide)
peptide: Y[Aib]EGTFTSDYSIYLDKIAAQEFVQWLLAGGPSSGAPPPSK-NH2
modifications: N-terminus assumed
SMILES: CC[C@H](C)[C@H](NC(=O)[C@H](CCCCN)NC(=O)[C@H](CC(=O)O)NC(=O)[C@H](CC(C)C)NC(=O)[C@H](Cc1ccc(O)cc1)NC(=O)[C@@H](NC(=O)[C@H](CO)NC(=O)[C@H](Cc1ccc(O)cc1)NC(=O)[C@H](CC(=O)O)NC(=O)[C@H](CO)NC(=O)[C@@H](NC(=O)[C@H](Cc1ccccc1)NC(=O)[C@@H](NC(=O)CNC(=O)[C@H](CCC(=O)O)NC(=O)C(C)(C)NC(=O)[C@@H](N)Cc1ccc(O)cc1)[C@@H](C)O)[C@@H](C)O)[C@@H](C)CC)C(=O)N[C@@H](C)C(=O)N[C@@H](C)C(=O)N[C@@H](CCC(N)=O)C(=O)N[C@@H](CCC(=O)O)C(=O)N[C@@H](Cc1ccccc1)C(=O)N[C@H](C(=O)N[C@@H](CCC(N)=O)C(=O)N[C@@H](Cc1c[nH]c2ccccc12)C(=O)N[C@@H](CC(C)C)C(=O)N[C@@H](CC(C)C)C(=O)N[C@@H](C)C(=O)NCC(=O)NCC(=O)N1CCC[C@H]1C(=O)N[C@@H](CO)C(=O)N[C@@H](CO)C(=O)NCC(=O)N[C@@H](C)C(=O)N1CCC[C@H]1C(=O)N1CCC[C@H]1C(=O)N1CCC[C@H]1C(=O)N[C@@H](CO)C(=O)N[C@@H](CCCCN)C(N)=O)C(C)C
As to B2, the “Activity for human GLP-1R” value was 0.043 nM.

B3: Compound No. 73 (peptide)
peptide: Y[Aib]EGTFTSDYSIYLEEEAAQEFVNWLLAGGPSSGAPPPS-NH2
modifications: N-terminus assumed
SMILES: CC[C@H](C)[C@H](NC(=O)[C@H](CO)NC(=O)[C@H](Cc1ccc(O)cc1)NC(=O)[C@H](CC(=O)O)NC(=O)[C@H](CO)NC(=O)[C@@H](NC(=O)[C@H](Cc1ccccc1)NC(=O)[C@@H](NC(=O)CNC(=O)[C@H](CCC(=O)O)NC(=O)C(C)(C)NC(=O)[C@@H](N)Cc1ccc(O)cc1)[C@@H](C)O)[C@@H](C)O)C(=O)N[C@@H](Cc1ccc(O)cc1)C(=O)N[C@@H](CC(C)C)C(=O)N[C@@H](CCC(=O)O)C(=O)N[C@@H](CCC(=O)O)C(=O)N[C@@H](CCC(=O)O)C(=O)N[C@@H](C)C(=O)N[C@@H](C)C(=O)N[C@@H](CCC(N)=O)C(=O)N[C@@H](CCC(=O)O)C(=O)N[C@@H](Cc1ccccc1)C(=O)N[C@H](C(=O)N[C@@H](CC(N)=O)C(=O)N[C@@H](Cc1c[nH]c2ccccc12)C(=O)N[C@@H](CC(C)C)C(=O)N[C@@H](CC(C)C)C(=O)N[C@@H](C)C(=O)NCC(=O)NCC(=O)N1CCC[C@H]1C(=O)N[C@@H](CO)C(=O)N[C@@H](CO)C(=O)NCC(=O)N[C@@H](C)C(=O)N1CCC[C@H]1C(=O)N1CCC[C@H]1C(=O)N1CCC[C@H]1C(=O)N[C@@H](CO)C(N)=O)C(C)C
With B3, the “Activity for human GLP-1R” value stood at 0.069 nM.

B4: Compound No. 7 (peptide)
peptide: Y[Aib]EGTFTSDVSIYLEKEAAKEFVNWLLAGGPSSGAPPPSK-NH2
modifications: N-terminus assumed
SMILES: CC[C@H](C)[C@H](NC(=O)[C@H](CO)NC(=O)[C@@H](NC(=O)[C@H](CC(=O)O)NC(=O)[C@H](CO)NC(=O)[C@@H](NC(=O)[C@H](Cc1ccccc1)NC(=O)[C@@H](NC(=O)CNC(=O)[C@H](CCC(=O)O)NC(=O)C(C)(C)NC(=O)[C@@H](N)Cc1ccc(O)cc1)[C@@H](C)O)[C@@H](C)O)C(C)C)C(=O)N[C@@H](Cc1ccc(O)cc1)C(=O)N[C@@H](CC(C)C)C(=O)N[C@@H](CCC(=O)O)C(=O)N[C@@H](CCCCN)C(=O)N[C@@H](CCC(=O)O)C(=O)N[C@@H](C)C(=O)N[C@@H](C)C(=O)N[C@@H](CCCCN)C(=O)N[C@@H](CCC(=O)O)C(=O)N[C@@H](Cc1ccccc1)C(=O)N[C@H](C(=O)N[C@@H](CC(N)=O)C(=O)N[C@@H](Cc1c[nH]c2ccccc12)C(=O)N[C@@H](CC(C)C)C(=O)N[C@@H](CC(C)C)C(=O)N[C@@H](C)C(=O)NCC(=O)NCC(=O)N1CCC[C@H]1C(=O)N[C@@H](CO)C(=O)N[C@@H](CO)C(=O)NCC(=O)N[C@@H](C)C(=O)N1CCC[C@H]1C(=O)N1CCC[C@H]1C(=O)N1CCC[C@H]1C(=O)N[C@@H](CO)C(=O)N[C@@H](CCCCN)C(N)=O)C(C)C
For the molecule B4, the “Activity for human GLP-1R” value is 0.016 nM.
